Data taken from patent US20220175942A1 (published 2022).
Where two headings read alike, the source gives them in different places.

B1: CCL3_HUMAN (ligand)
chain: SLAADTPTACCFSYTSRQIPQNFIADYFETSSQCSKPGVIFLTKRSRQVCADPSEEWVQKYVSDLELSA
B2: P943_IXORI (other)
chain: RSKQPTASQSSKNSIKAEFCDTNCTQGTNGAWSGCSEGCFCVHVGNNTKGRCMKLSSDYDYTTQ
B3: CCL18_HUMAN (ligand)
chain: AQVGTNKELCCLVYTSWQIPQKFIVDYSETSPQCPKPGVILLTKRGRQICADPNKKWVQKYISDLKLNA
B4: CCL25_HUMAN (ligand)
chain: QGVFEDCCLAYHYPIGWAVLRRAWTYRIQEVSGSCNLPAAIFYLPKRHRKVCGNPKSREVQRAMKLLDARNKVFAKLHHNTQTFQAGPHAVKKLSSGNSKLSSSKFSNPISSSKRNVSLLISANSGL
B5: P1156_IXORI (other)
chain: ADDDNELFTVQYCGMNCTKDEGGTWTGCTGKKEGCKCYHESGKNYGLCLSTEYTDFSQYGNPSDSEIEAAKPKRSDTLSH
B6: P1243_AMBAM (other)
chain: RNHTEDNSTEYYDYEEARCACPARHLNNTNGTVLKLLGCHYFCNGTLCTAPDGYPCYNLTAQQVRTLTTYPNTSCAVGVCMKGTCVKNGTMEQCFKTP
B7: P991_AMBCA (other)
chain: ENGEGTTQPDYDNSTDYYNYEDFKCTCPAPHLNNTNGTVMKPIGCYYTCNVTRCTAPDTYPCYNLTEHQAKNLTTSPTTLCAVGNCDHGICVPNGTKELCFKAPNLEE
B8: CCL22_HUMAN (ligand)
chain: GPYGANMEDSVCCRDYVRYRLPLRVVKHFYWTSDSCPRPGVVLLTFRDKEICADPRVPWVKMILNKLSQ

Assays:
EVASIN1 = assay: -; previously described evasin
EVASIN4 [1] = assay: -; previously described evasin
CXCL3_HUMAN [2] = assay: BLI
CXCL1_HUMAN [3] = assay: BLI
EVASIN4 [4] = assay: -; previously described evasin; remark: listed apart in the source
CXCL3_HUMAN [5] = assay: BLI; remark: listed apart in the source
CXCL1_HUMAN [6] = assay: BLI; remark: listed apart in the source
CXCL8_HUMAN = CXCL8_HUMAN (human, UniProt P10145 28-99); assay: BLI
CCL23_HUMAN = assay: BLI
CCL24_HUMAN = assay: BLI
CCL27_HUMAN = assay: BLI
CCL22_HUMAN = molecular target: B8; assay: BLI
CCL3L1_HUMAN = assay: BLI
CCL4L1_HUMAN = assay: BLI
CCL7_HUMAN = assay: BLI
CCL14_HUMAN = assay: BLI
CCL13_HUMAN = assay: BLI
CCL16_HUMAN = assay: BLI
CCL21_HUMAN = assay: BLI
CCL1_HUMAN = molecular target: T1, CCL1_HUMAN (human, UniProt P22362 24-96); assay: BLI
T1 chain: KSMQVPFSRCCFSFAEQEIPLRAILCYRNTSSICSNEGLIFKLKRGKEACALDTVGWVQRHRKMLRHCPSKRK

CCL5_HUMAN = molecular target: T2, CCL5_HUMAN (human, UniProt P13501 24-91); assay: BLI
T2 chain: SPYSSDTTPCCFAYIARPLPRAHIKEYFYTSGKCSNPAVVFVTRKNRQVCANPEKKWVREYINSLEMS

CCL3_HUMAN = molecular target: B1; assay: BLI
CCL8_HUMAN = molecular target: T3, CCL8_HUMAN (human, UniProt P80075 24-99); assay: BLI
T3 chain: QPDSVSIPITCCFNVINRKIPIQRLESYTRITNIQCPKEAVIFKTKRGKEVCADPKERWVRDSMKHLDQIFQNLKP

CCL20_HUMAN = CCL20_HUMAN (human, UniProt P78556 27-96); assay: BLI
CCL18_HUMAN = molecular target: B3; assay: BLI
CCL4 = molecular target: T4, CCL4 (human, UniProt P13236 24-92); assay: BLI
T4 chain: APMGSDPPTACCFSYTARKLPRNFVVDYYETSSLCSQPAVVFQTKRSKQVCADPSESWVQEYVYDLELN

CCL17_HUMAN = molecular target: T5, CCL17_HUMAN (human, UniProt Q92583 24-94); assay: BLI
T5 chain: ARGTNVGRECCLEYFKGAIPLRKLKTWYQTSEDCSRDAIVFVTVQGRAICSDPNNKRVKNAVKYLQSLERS

CCL19_HUMAN = molecular target: T6, CCL19_HUMAN (human, UniProt Q99731 22-98); assay: BLI
T6 chain: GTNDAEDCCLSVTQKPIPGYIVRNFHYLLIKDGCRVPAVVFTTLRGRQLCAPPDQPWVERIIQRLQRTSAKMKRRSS

CCL11_HUMAN = CCL11_HUMAN (human, UniProt P51671 24-97); assay: BLI
CCL15_HUMAN = molecular target: T7, CCL15_HUMAN (human, UniProt Q16663 22-113); assay: BLI
T7 chain: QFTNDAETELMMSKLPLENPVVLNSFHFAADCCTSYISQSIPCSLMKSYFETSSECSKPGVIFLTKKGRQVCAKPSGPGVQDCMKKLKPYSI

CCL2_HUMAN = CCL2_HUMAN (human, UniProt P13500 24-99); assay: BLI
CCL2_HUMAN, sequence (P13500 24-99): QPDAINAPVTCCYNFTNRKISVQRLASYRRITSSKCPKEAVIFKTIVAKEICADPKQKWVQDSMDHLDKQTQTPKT

CCL11_HUMAN, sequence (P51671 24-97): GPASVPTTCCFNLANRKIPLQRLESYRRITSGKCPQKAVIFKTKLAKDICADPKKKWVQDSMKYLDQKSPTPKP
CCL20_HUMAN, sequence (P78556 27-96): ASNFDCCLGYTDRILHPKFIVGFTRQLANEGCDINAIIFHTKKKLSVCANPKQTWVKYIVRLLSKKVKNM
CXCL8_HUMAN, sequence (P10145 28-99): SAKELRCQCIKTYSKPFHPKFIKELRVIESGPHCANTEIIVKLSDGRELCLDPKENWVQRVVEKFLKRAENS

B1
Kd (EVASIN1): 0.1 nM
Kd (EVASIN4 [1]): 0.06 nM

B2
Kd (CXCL3_HUMAN [2]): 270 nM
Kd (CXCL1_HUMAN [3]): 24 nM

B3
Kd (EVASIN1): 3 nM
Kd (EVASIN4 [1]): 0.03 nM

B4
Kd (EVASIN4 [4]): 69.6 nM

B5
Kd (CXCL3_HUMAN [5]): 81 nM
Kd (CXCL1_HUMAN [6]): 3.25 nM
Kd (CXCL8_HUMAN): 4.6 nM

B6
Kd (CCL23_HUMAN): 6.62 nM
Kd (CCL24_HUMAN): 7.39 nM
Kd (CCL27_HUMAN): 15.1 nM
Kd (CCL22_HUMAN): 22.3 nM
Kd (CCL3L1_HUMAN): 9.61 nM
Kd (CCL4L1_HUMAN): 35.4 nM
Kd (CCL7_HUMAN): 8.66 nM
Kd (CCL14_HUMAN): 0.816 nM
Kd (CCL13_HUMAN): 0.788 nM
Kd (CCL16_HUMAN): 0.926 nM
Kd (CCL21_HUMAN): 6.54 nM
Kd (CCL1_HUMAN): 21.3 nM
Kd (CCL5_HUMAN): 1.74 nM
Kd (CCL3_HUMAN): 5.3 nM
Kd (CCL8_HUMAN): 21.9 nM
Kd (CCL20_HUMAN): 8.34 nM
Kd (CCL18_HUMAN): 0.00501 nM
Kd (CCL4): 15.3 nM
Kd (CCL17_HUMAN): 0.734 nM
Kd (CCL19_HUMAN): 0.592 nM
Kd (CCL11_HUMAN): 6.03 nM
Kd (CCL15_HUMAN): 5.05 nM

B7
Kd (CCL23_HUMAN): 5.58 nM
Kd (CCL24_HUMAN): 6.54 nM
Kd (CCL27_HUMAN): 38.9 nM
Kd (CCL22_HUMAN): 3.97 nM
Kd (CCL3L1_HUMAN): 1.4 nM
Kd (CCL4L1_HUMAN): 0.827 nM
Kd (CCL7_HUMAN): 0.514 nM
Kd (CCL14_HUMAN): 0.43 nM
Kd (CCL13_HUMAN): 0.419 nM
Kd (CCL16_HUMAN): 1.28 nM
Kd (CCL5_HUMAN): 1.47 nM
Kd (CCL3_HUMAN): 1.08 nM
Kd (CCL2_HUMAN): 12.2 nM
Kd (CCL8_HUMAN): 8.79 nM
Kd (CCL18_HUMAN): 0.209 nM
Kd (CCL4): 5.82 nM
Kd (CCL17_HUMAN): 7.66 nM
Kd (CCL19_HUMAN): 14.4 nM
Kd (CCL11_HUMAN): 3.43 nM
Kd (CCL15_HUMAN): 159 nM

B8
Kd (EVASIN4 [4]): 0.43 nM
